From patent US20160367497A1, “METHODS AND COMPOSITIONS FOR TREATING NEUROPATHIES” (Washington University, priority 2007, published 2016)

Experiments:
DRG neuronal explant = test: vincristine-induced axonal degeneration in DRG neuronal explants; type: cell-based, mouse; settings: 0.5 μM vincristine for up to 9 d; lentiviral expression
Protocol: (§1) To identify the mechanism of delayed axonal degeneration mediated by the Wlds protein, we employed an in-vitro Wallerian degeneration model. Primary DRG explant neurons were infected with lentivirus expressing the appropriate proteins, and axons were injured by either removal of the neuronal cell body (transection) or growth in vincristine (toxic).
Quantitative analysis of axonal degeneration was performed as previously described (Zhai, et al., Neuron 39:217-25, 2003). Briefly, the cultures were examined using phase contrast microscopy at the indicated times. Axons with a fragmented, non-refractile appearance were designated as “degenerated.” At each time point, at least 200 singly distinguishable axons were blindly scored from several randomly taken images of each culture. Each condition was tested in triplicate explants in each experiment. Results were obtained from 2-4 independent experiments for each condition. Statistical analysis was performed by Student's T test. For calculations of neurite-covered area, digitally captured images from quadruplicate samples of two independent experiments were analyzed using analysis 3.1 software (Soft Imaging System, Lakewood, Colo.). […]

[1] = tested on: DRG neuronal explant cultures; test: in vitro Wallerian degeneration assay, DRG explant neurite transection; type: cell-based, mouse; settings: lentivirus-mediated expression in DRG neurons
Protocol: as §1
Mouse DRG explants from E12.5 embryos were cultured in the presence of 1 nM nerve growth factor. Non-neuronal cells were removed from the cultures by adding 5-fluorouracil to the culture medium. Transection of neurites was performed at 10-20 DIV using an 18-gauge needle to remove the neuronal cell bodies. […]
Quantitative analysis of axonal degeneration was performed as previously described (Zhai, et al., Neuron 39:217-25, 2003). […] Axons with a fragmented, non-refractile appearance were designated as “degenerated.” At each time point, at least 200 singly distinguishable axons were blindly scored from several randomly taken images of each culture. […] For calculations of neurite-covered area, digitally captured images from quadruplicate samples of two independent experiments were analyzed using analysis 3.1 software (Soft Imaging System, Lakewood, Colo.).
Cell culture, in vitro axotomy, and quantification of axonal degeneration. […] Quantitative analysis of neurite degeneration was performed.

Molecule	axon length and refractility (DRG neuronal explant)	axonal/neurite degeneration after transection [1]
NMNAT1: nicotinamide mononucleotide adenylyltransferase1, lentivirus expressed (protein, UniProt Q9EPA7 1-285, looked up) Nicotinamide/nicotinic acid …: MDSSKKTEVVLLACGSFNPITNMHLRLFELAKDYMHATGKYSVIKGIISPVGDAYKKKGLIPAHHRIIMAELATKNSHWVEVDTWESLQKEWVETVKVLRYHQEKLATGSCSYPQSSPALEKPGRKRKWADQKQDSSPQKPQEPKPTGVPKVKLLCGADLLESFSVPNLWKMEDITQIVANFGLICITRAGSDAQKFIYESDVLWRHQSNIHLVNEWITNDISSTKIRRALRRGQSIRYLVPDLVQEYIEKHELYNTESEGRNAGVTLAPLQRNAAEAKHNHSTL	maintained their original length and refractility	–
NmPRT: nicotinamide phosphoribosyltransferase (protein, UniProt P43490 1-491, looked up) Nicotinamide …: MNPAAEAEFNILLATDSYKVTHYKQYPPNTSKVYSYFECREKKTENSKLRKVKYEETVFYGLQYILNKYLKGKVVTKEKIQEAKDVYKEHFQDDVFNEKGWNYILEKYDGHLPIEIKAVPEGFVIPRGNVLFTVENTDPECYWLTNWIETILVQSWYPITVATNSREQKKILAKYLLETSGNLDGLEYKLHDFGYRGVSSQETAGIGASAHLVNFKGTDTVAGLALIKKYYGTKDPVPGYSVPAAEHSTITAWGKDHEKDAFEHIVTQFSSVPVSVVSDSYDIYNACEKIWGEDLRHLIVSRSTQAPLIIRPDSGNPLDTVLKVLEILGKKFPVTENSKGYKLLPPYLRVIQGDGVDINTLQEIVEGMKQKMWSIENIAFGSGGGLLQKLTRDLLNCSFKCSYVVTNGLGINVFKDPVADPNKRSKKGRLSLHRTPAGNFVTLEEGKGDLEEYGQDLLHTVFKNGKVTKSYSFDEIRKNAQLNIELEAAHH	–	shows axonal protection
